Test results taken from US20040166544A1 (published 2004).
Substitutions are numbered along the chain they refer to. Where “and” joins values, the source holds several entries; their conditions need not be identical. Identical values can stand only once.

B1: NK4-6His (recombinant NK4, CHO DG44/pPHA27965) (ligand)
chain: QRKRRNTIHEFKKSAKTTLIKIDPALKIKTKKVNTADQCANRCTRNKGLPFTCKAFVFDKARKQCLWFPFNSMSSGVKKEFGHEFDLYENKDYIRNCIIGKGRSYKGTVSITKSGIKCQPWSSMIPHEHSFLPSSYRGKDLQENYCRNPRGEEGGPWCFTSNPEVRYEVCDIPQCSEVECMTCNGESYRGLMDHTESGKICQRWDHQTPHRHKFLPERYPDKGFDDNYCRNPDGQPRPWCYTLDPHTRWEYCAIKTCADNTMNDTDVPLETTECIQGQGEGYRGTVNTIWNGIPCQRWDSQYPHEHDMTPENFKCKDLRENYCRNPDGSESPWCFTTDPNIRVGYCSQIPNCDMSHGQDCYRGNGKNYMGNLSQTRSGLTCSMWDKNMEDLHRHIFWEPDASKLNENYCRNPDDDAHGPWCYTGNPLIPWDYCPISRCEGDTTPTIVHHHHHH
notes: domain: NK4; also called NK4-His
B2: c-Met IgG antibody 12075 (antibody, V domains shown)
VH: QVQLVQSGPEVKKPGASVEVSCKASGYTFTGDYMHWVRQAPGQGPEWMGWINPQTGVTKYAQKFQGRVTMARDTSINTAYMELRGLRSDDTAVYYCVREDHNYDLWSAYNGLDVWGQGTLVTVSS
VL: QSVLTQPPSVSAAPGQKVTISCSGSSSNIGNNHVSWYQQLAGTAPKLLIFDNDKRPSGIPDRFSGSKSGTSATLGITGLQTGDEADYYCGTWDKSPTDIYVFGSGTKLTVLG
notes: IgG of scFv PGIA-3-A11; also called 12075 IgG; IgG of scFv PGIA-03-A11 (PGIA-3-A11)
B3: c-Met IgG antibody 11978 (antibody, V domains shown)
VH: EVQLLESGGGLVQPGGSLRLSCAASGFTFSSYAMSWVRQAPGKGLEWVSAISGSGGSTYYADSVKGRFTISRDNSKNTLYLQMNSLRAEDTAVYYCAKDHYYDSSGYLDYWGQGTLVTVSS
VL: NFMLTQPHSVSESPGKTVTISCTRSSGSIAFDYVQWYQQRPGSAPTTVIYEDNQRPSGVPDRFSASIDSSSNSASLTISALKTEDEADYYCQSYDNSNSWVFGGGTKLTVLG
notes: IgG of scFv PGIA-1-A8; also called IgG of scFv PGIA-01-A8 (PGIA-1-A8)
B4: NK4-Elastase (ligand, UniProt P14210 32-478, looked up)
chain: QRKRRNTIHEFKKSAKTTLIKIDPALKIKTKKVNTADQCANRCTRNKGLPFTCKAFVFDKARKQCLWFPFNSMSSGVKKEFGHEFDLYENKDYIRNCIIGKGRSYKGTVSITKSGIKCQPWSSMIPHEHSFLPSSYRGKDLQENYCRNPRGEEGGPWCFTSNPEVRYEVCDIPQCSEVECMTCNGESYRGLMDHTESGKICQRWDHQTPHRHKFLPERYPDKGFDDNYCRNPDGQPRPWCYTLDPHTRWEYCAIKTCADNTMNDTDVPLETTECIQGQGEGYRGTVNTIWNGIPCQRWDSQYPHEHDMTPENFKCKDLRENYCRNPDGSESPWCFTTDPNIRVGYCSQIPNCDMSHGQDCYRGNGKNYMGNLSQTRSGLTCSMWDKNMEDLHRHIFWEPDASKLNENYCRNPDDDAHGPWCYTGNPLIPWDYCPISRCEGDTTPTIV
notes: domain: kringle to kringle 4 fragment
B5: c-Met IgG antibody 12119 (antibody, V domains shown)
VH: QLQLQESGPGLVKPSGTLSLTCAVSGGSISTSDWWSWVRRPPGKGLEWIGEIYHSGSTNYHPSLKSRVTISLDKSKNQFSLKLSSVTAADTAVYYCAREGGHSGSYPLDYWGRGTLVTVSS
VL: NFMLTQPHSVSESPGKTVTISCARSSGSIASNYVQWYQQRPGSSPTTLIYEDRQRPSGVPDRFSGSIDSSSNSASLTISGLKTEDEADYYCQSYDSSDHVVFGGGTKLTVLG
notes: IgG of scFv PGIA-5-A1; also called 12119 IgG; IgG of scFv PGIA-05-A1 (PGIA-5-A1)
B6: c-Met IgG antibody 11994 (antibody, V domains shown)
VH: B5 VH with L2V, R113K
VL: NFMLTQPHSVSESPGKTVTISCTRSSGSIASNYVQWYQQRPGSSPTTVIYEDNQRPSGVPDRFSGSIDSSSNSASLTISGLKTEDEADYYCQSYDSSNQGVVFGGGTKLTVLG
notes: IgG of scFv PGIA-3-A9; also called 11994 IgG; 11994-50
B7: c-Met 11994 Fab (Fab, V domains shown)
VH: B5 VH with L2V, R113K
VL: B6 VL
notes: VH and VL limits counted as for the IgG; also called 11994-50; Fab fragment derived from c-Met antibody 11994

What was measured:
[1] = biological target: T1, c-Met/Fc Chimera (R&D Systems, catalog # 358-MT-100) (human, UniProt P08581 25-932); test: competition ELISA: displacement of biotinylated HGF from plate-coated c-Met/Fc chimera; value stands in the Fab column, n = 2
T1 construct: extracellular domain; Bought reagent; also called human c-Met-Fc fusion protein; recombinant c-Met protein; Fc part of the bought chimera not given
Experimental: (§1) 96-well Fluoronunc plates were coated with 50 ul of 0.5 ug/ml c-Met/Fc Chimera (R&D Systems, Minneapolis Minn., catalog # 358-MT-100) in phosphate buffered saline (PBS) and the plates were incubated overnight at room temperature. Wells were washed three times with washing buffer (PBS+0.1% Tween 20), blotting the plates on paper towels between each wash. Nonspecific binding in the wells was blocked by the addition of 250 ul of blocking buffer (3.0% milk (Carnation) in PBS) to each well and incubated at room temperature for two hours.
The c-Met antibodies were diluted in reagent buffer (PBS, 0.5% BSA, 0.05% Tween-20) and titrations were performed in 96 well polypropylene plates. Biotinylated HGF (0.4 ug/ml) (R&D Systems, biotinylated with Pierce #21335 as per manufacturer's instructions) was added to each well. 50 ul of the dilutions were transferred into the Fluoronunc plates containing human c-Met-Fc fusion protein (R&D Systems, #) and the plates were incubated for two hours at room temperature. The plates were washed three times with wash buffer and blotted onto paper towels. […] Plates were read on a fluorescence plate reader and analyzed using GraphPad Prism software (GraphPad Software, San Diego, Calif.). […]

[2] = biological target: T1, c-Met/Fc Chimera (R&D Systems, catalog …); test: competition ELISA: displacement of biotinylated HGF from plate-coated c-Met/Fc chimera, IgG, n = 2
Experimental: as §1
(§2) The c-Met antibodies were diluted in reagent buffer (PBS, 0.5% BSA, 0.05% Tween-20) and titrations were performed in 96 well polypropylene plates. Biotinylated HGF (0.4 ug/ml) (R&D Systems, biotinylated with Pierce #21335 as per manufacturer's instructions) was added to each well. 50 ul of the dilutions were transferred into the Fluoronunc plates containing human c-Met-Fc fusion protein (R&D Systems, #) and the plates were incubated for two hours at room temperature. The plates were washed three times with wash buffer and blotted onto paper towels. 50 ul of europium-labeled Streptavidin (Wallac Perkin Elmer) diluted 1:1000 in Delfia assay buffer (Wallac Perkin Elmer) was added per well and the plates were incubated for one hour at room temperature. The plates were washed seven times with Delfia wash buffer (Tris buffered saline (TBS) supplemented with 0.1% Tween-20) and blotted onto paper towels. 100 ul Delfia enhancer solution (Wallac Perkin Elmer) was added to each well and the plates incubated for 5 minutes on a plate shaker at room temperature. Plates were read on a fluorescence plate reader and analyzed using GraphPad Prism software (GraphPad Software, San Diego, Calif.).
(§3) C-Met antibodies 1A3.3.13 (#HB-11894, ATCC Hybridoma) and 5D5.11.6 (#HB-11895, ATCC Hybridoma) were used as positive controls. MOPC-21 (#M-7894, Sigma) was used as an IgG isotype control and HB-94 (#HB-94, ATCC Hybridoma) was converted into a Fab fragment and used as a Fab isotype control. NK4-Elastase is a kringle to kringle 4 fragment resulting from digesting intact HGF purified from S-114 cells with elastase (Date et al., FEBS Lett. 420:1-6 ([…]).

[3] = biological target: c-Met (endogenous, on human cell lines 184B5, HCT-116, DU-145 and NCI H441) (human, UniProt P08581 25-1390); test: cell-based or functional assay
[4] = biological target: T2, biotinylated c-Met-Fc (R&D Systems, #358-MT-100/CF, 5.1 biotin per c-Met molecule) (human, UniProt P08581 25-932, biotinylated, 5.1 biotin per c-Met molecule (Pierce #21335)); test: SPR (BIAcore), biotinylated c-Met-Fc captured on streptavidin chip, IgG as analyte, bivalent model
T2 construct: extracellular domain; Captured on a streptavidin (SA) chip for the BIAcore study of the IgGs; Fc part of the bought chimera not given
Experimental: The binding properties (on-rate, off-rate and affinity) of c-Met monoclonal antibodies (IgG or Fab versions) with human c-Met extracellular domain was determined using surface plasmon resonance, or BLAcore, technology. For the binding studies with IgG, a low density (<1 ng/mm2) of c-Met-Fc (R&D Systems, #358-MT-100/CF) containing 5.1 biotin per c-Met molecule (prepared with Pierce #21335 as per manufacturer's instructions) was captured onto a SA chip precoated with Streptavidin (BIAcore Inc.). A streptavidin flow cell without adsorbed c-Met-Fc was used as a control cell for non-specificbinding. The antibody sample to be analyzed was prepared in HEPES buffer (0.15M NaCl, 10 mM HEPES, 3.4 mM EDTA, 0.005% surfactant P-20, pH 7.4) to form a set of solutions varied in concentration from 0.78 nM to 100 nM. The HEPES buffer used as the running solution was set at a flow rate of 50 ul/min. Each sample solution was injected over the two flow cells for three minutes, followed by 5 minutes of dissociation. The flow cells were then regenerated with 4.5M MgCl₂ for one minute to remove the bound antibody for the next cycle of binding study. The net sensorgrams (subtraction of sensorgrams from the negative control flow cell as well as that from the buffer blank) obtained for each set of samples were processed simultaneously in a global fitting using a bivalent binding model of the BIAevaluation software program equipped with the system. The on-rate (Kₐ), off-rate (Kd) and binding affinity (KD) were determined from the fitting with KD equal to kd/kₐ.

[5] = biological target: T1, c-Met/Fc Chimera (R&D Systems, catalog …); test: europium (DELFIA) ligand competition ELISA: biotinylated HGF binding to plate-coated c-Met/Fc Chimera, antibody titrated
Experimental: as §1, §2

[6] = biological target: T1, c-Met/Fc Chimera (R&D Systems, catalog …); test: competition ELISA: displacement of biotinylated HGF from plate-coated c-Met/Fc chimera, Fab, n = 2
Experimental: as §1, §2, §3

[7] = biological target: T1, c-Met/Fc Chimera (R&D Systems, catalog …); test: europium (DELFIA) ligand competition ELISA: biotinylated HGF binding to plate-coated c-Met/Fc Chimera, Fab titrated
Experimental: as §1
The c-Met antibodies were diluted in reagent buffer (PBS, 0.5% BSA, 0.05% Tween-20) and titrations were performed in 96 well polypropylene plates. Biotinylated HGF (0.4 ug/ml) (R&D Systems, biotinylated with Pierce #21335 as per manufacturer's instructions) was added to each well. 50 ul of the dilutions were transferred into the Fluoronunc plates containing human c-Met-Fc fusion protein (R&D Systems, #) and the plates were incubated for two hours at room temperature. The plates were washed three times with wash buffer and blotted onto paper towels. […] Plates were read on a fluorescence plate reader and analyzed using GraphPad Prism software (GraphPad Software, San Diego, Calif.).

[8] = biological target: T1, c-Met/Fc Chimera (R&D Systems, catalog …); test: SPR (BIAcore), c-Met-Fc captured on protein A CM5 chip, Fab as analyte, 1:1 Langmuir model
Experimental: For the binding study of Fab fragments derived from antibodies of the invention, a high density (>2 ng/mm²) of protein A was first immobilized covalently onto a CM5 sensorchip using EDC/NHS amine coupling chemistry [. The flow cell containing c-Met-Fc captured by the protein A was used as the positive control while a flow cell containing only protein A was used as the negative control. The Fab sample to be analyzed was as above for antibodies to form a set of solutions with concentration ranged from 3.9 nM to 500 nM. The HEPES buffer used as the running solution was set at a flow rate of 50 ul/min. For each cycle of binding study, low density (<1 ng/mm²) of c-Met-Fc was captured first onto the positive flow cell. Each sample solution was then injected over the two flow cells (one negative and one positive in series) for three minutes followed by 5 minutes of dissociation. The flow cells were then regenerated with 4.5M MgCl₂ for one minute to remove the bound c-Met-Fc/Fab complexes for the next cycle of binding. The net sensorgrams (subtraction of sensorgrams from the negative control flow cell as well as that from the buffer blank) obtained from the set of samples were fitted simultaneously in a global fitting using a Langmuir 1:1 binding model of the BIAevaluation program equipped with the system. The on-rate (Kₐ), off-rate (Kd) and binding affinity (KD) were determined from the fitting with KD equal to kd/kₐ.

T1 sequence (P08581 25-932, change not shown): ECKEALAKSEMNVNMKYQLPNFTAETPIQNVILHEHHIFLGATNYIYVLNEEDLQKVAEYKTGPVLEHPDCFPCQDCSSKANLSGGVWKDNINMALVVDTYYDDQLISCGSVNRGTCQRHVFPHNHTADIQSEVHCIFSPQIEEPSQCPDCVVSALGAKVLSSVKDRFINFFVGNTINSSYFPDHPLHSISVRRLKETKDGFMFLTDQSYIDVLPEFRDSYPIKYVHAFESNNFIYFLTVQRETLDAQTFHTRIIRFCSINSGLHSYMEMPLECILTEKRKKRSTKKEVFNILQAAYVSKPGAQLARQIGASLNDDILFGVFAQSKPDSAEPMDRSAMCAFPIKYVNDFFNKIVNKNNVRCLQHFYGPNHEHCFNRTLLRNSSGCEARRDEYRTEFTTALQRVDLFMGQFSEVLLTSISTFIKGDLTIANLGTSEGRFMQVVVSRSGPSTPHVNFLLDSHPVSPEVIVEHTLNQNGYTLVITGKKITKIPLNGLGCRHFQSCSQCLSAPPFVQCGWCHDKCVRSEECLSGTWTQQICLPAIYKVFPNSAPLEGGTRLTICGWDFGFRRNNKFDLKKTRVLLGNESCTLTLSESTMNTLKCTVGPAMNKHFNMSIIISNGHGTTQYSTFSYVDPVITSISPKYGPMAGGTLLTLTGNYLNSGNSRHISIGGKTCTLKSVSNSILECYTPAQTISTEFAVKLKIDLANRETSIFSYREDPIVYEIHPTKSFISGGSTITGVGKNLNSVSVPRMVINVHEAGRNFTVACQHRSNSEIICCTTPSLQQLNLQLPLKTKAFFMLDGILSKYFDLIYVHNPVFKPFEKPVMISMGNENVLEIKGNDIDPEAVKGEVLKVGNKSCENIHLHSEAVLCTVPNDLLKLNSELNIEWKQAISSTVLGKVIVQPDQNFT
T2 sequence (P08581 25-932): as the sequence (P08581 25-932, change not shown) above
c-Met (endogenous, on human cell lines 184B5, HCT-116, DU-145 and NCI H441), sequence (P08581 25-1390): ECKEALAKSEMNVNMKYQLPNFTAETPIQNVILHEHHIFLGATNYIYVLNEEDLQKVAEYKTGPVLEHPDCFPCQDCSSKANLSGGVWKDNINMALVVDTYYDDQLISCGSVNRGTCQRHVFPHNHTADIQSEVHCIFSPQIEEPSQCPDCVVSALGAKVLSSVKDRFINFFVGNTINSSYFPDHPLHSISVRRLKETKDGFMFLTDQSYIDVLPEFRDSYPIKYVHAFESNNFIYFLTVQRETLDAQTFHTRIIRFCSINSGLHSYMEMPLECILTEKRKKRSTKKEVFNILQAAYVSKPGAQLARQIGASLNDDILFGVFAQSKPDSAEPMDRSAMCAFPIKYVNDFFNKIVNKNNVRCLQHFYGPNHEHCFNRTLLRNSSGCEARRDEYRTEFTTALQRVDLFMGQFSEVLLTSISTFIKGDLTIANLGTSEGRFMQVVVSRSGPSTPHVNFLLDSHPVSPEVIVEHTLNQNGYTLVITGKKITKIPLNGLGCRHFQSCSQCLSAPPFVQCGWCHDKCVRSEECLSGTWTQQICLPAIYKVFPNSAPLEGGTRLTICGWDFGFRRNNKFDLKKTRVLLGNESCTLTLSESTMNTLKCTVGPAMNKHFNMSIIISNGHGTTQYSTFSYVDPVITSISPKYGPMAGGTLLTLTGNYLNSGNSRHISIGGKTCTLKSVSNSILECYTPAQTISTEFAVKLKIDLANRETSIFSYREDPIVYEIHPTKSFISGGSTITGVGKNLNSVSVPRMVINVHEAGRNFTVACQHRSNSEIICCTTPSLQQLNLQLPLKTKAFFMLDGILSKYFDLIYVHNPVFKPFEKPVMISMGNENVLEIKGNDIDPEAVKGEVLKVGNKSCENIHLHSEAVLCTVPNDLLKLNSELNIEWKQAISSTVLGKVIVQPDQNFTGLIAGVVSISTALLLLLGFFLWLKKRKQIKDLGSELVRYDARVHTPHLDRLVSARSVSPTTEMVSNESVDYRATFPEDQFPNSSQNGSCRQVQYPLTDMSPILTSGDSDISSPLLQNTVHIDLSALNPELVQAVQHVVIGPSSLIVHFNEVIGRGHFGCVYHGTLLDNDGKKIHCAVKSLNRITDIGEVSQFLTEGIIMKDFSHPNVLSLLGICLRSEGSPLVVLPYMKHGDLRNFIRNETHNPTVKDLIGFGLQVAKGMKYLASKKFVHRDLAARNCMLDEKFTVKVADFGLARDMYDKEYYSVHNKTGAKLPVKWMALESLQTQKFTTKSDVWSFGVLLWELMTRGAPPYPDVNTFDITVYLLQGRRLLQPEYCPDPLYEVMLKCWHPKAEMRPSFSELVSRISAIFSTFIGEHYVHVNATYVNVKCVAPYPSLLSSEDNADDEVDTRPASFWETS

Binder | IC50 [2] | scatter assay on DU-145 cells, mean object area, agonist (alone), 100 nM IgG; the smaller the number, the more scattering [3] | scatter assay on DU-145 cells, mean object area, antagonist (w/30 pM HGF), 100 nM IgG; the smaller the number, the more scattering [3] | Kd [4] | koff [4] | kon [4] | IC50 (read off the curve) [5] | also measured
B1 | – | – | – | – | – | – | – | IC50 [1]: > 125 nM
B2 | 2.55 nM | 318 mean object area | 289 mean object area | 552 nM | 0.00845 s⁻¹ | 15300 M⁻¹ s⁻¹ | ~3 nM | –
B3 | 0.84 nM | 459 mean object area | 372 mean object area | – | – | – | ~0.8 nM | –
B4 | – | – | – | – | – | – | – | IC50 [1]: 900 nM and 551 nM
B5 | 0.64 nM | 285 mean object area | 293 mean object area | 13 nM | 0.00112 s⁻¹ | 86000 M⁻¹ s⁻¹ | ~0.7 nM | –
B6 | 0.58 nM | – | – | 8.4 nM | 0.000759 s⁻¹ | 90600 M⁻¹ s⁻¹ | ~0.7 nM | –
B7 | – | – | – | – | – | – | – | IC50 [6]: 24.6 nM; IC50 (read off the curve) [7]: ~3 nM; Kd [8]: 13.8 nM; koff [8]: 0.00528 s⁻¹; kon [8]: 383000 M⁻¹ s⁻¹
